Measurements published in patent US20250282887A1 (Amgen, published 2025).

Columns and labels:
human MAGEA3 = molecular target: T1, human MAGEA3 (human, UniProt P43357 1-314); assay: IHC, FFPE CHO cells transfected with human MAGEA3
T1 construct: whole, on cells; FFPE cell pellets
Method: (§1) FFPE samples were sectioned at 4 μm and mounted on positive charged glass slides. After mounting, paraffin sections were air-dried at room temperature. FFPE TMA samples were received as freshly sectioned and mounted on glass slides. The fully automated IHC assay was performed on a Discovery Ultra Stainer (Ventana Medical Systems, Tucson, AZ) using Ventana Anti-Rabbit HQ (cat #760-4815), Ventana Anti-HQ HRP (cat #760-4820), and Ventana Antibody Diluent with Casein (cat #760-219) (Ventana Medical Systems, Tucson, AZ). The slides were baked on the Discovery Ultra Stainer at 60° C. for 8 minutes, de-paraffinized with Ventana Discovery wash (cat #950-510) for 3 cycles (8 minutes each) at 69° C., and underwent cell conditioning (target retrieval) at 95° C. for 16 minutes (for cell arrays) or 32 minutes (tissues or TMAs) in CC1 buffer (cat #950-500). Following this, slides were incubated with Background Sniper (cat #BS966M, Biocare Medical, Pacheco, CA) in a Ventana Option Prep kit (cat #771-751) for 28 minutes, incubated with CM inhibitor (a part of the Ventana DAB kit cat #760-159) for 12 minutes, and incubated for 1 h at RT with MAGE-B2 antibody diluted with Ventana diluent with Casein in a Ventana Prep kit (cat #770-001) (working concentration at 0.1 μg/ml for cell pellet, or 1-5 ug/ml for tissues) or with a matched concentration of isotype control Rabbit IgG1 antibody. Following this, slides were incubated with the Ventana Anti-Rabbit HQ (cat #760-4815) for 28 minutes at RT, Ventana Anti-HQ HRP (cat #760-4820) for 28 minutes at RT, and signals detected with Ventana DAB chromogen kit (cat #760-159) for 5 minutes at RT. Slides were counterstained with Ventana Hematoxylin II (cat #5266726001) for 8 minutes and Ventana Bluing reagent (cat #526676900) for 4 minutes. Slides were coverslipped and digitized using an Aperio AT2 scanner (Leica Biosystems Inc, Buffalo Grove, IL).

human MAGEB1 = molecular target: T2, human MAGEB1 (human, UniProt P43366 1-347); assay: IHC, FFPE CHO cells transfected with human MAGEB1
T2 construct: whole, on cells; Transfected into CHO cells with Myc/DDK tags
T2 sequence (looked up): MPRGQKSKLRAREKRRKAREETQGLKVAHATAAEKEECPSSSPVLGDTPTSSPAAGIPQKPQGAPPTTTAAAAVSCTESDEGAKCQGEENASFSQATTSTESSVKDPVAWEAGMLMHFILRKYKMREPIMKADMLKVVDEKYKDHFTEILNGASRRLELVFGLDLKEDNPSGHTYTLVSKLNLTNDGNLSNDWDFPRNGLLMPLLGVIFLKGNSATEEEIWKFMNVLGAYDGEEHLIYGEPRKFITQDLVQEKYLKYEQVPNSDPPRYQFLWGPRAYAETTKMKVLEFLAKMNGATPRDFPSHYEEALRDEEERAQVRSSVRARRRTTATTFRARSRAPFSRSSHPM
Excerpt: (§2) Negative control cells included parental Chinese hamster ovary (CHO) cells, CHO cells stably transfected with mCherry Vector Control (minus Myc/DDK tags), CHO cells stably transfected with mCherry-human DCAF4L2 (plus Myc/DDK tags). The cross-reactivity control cells included CHO cells transfected with mCherry Vector Control (plus Myc/DDK tags) with one of the human MAGE-B or MAGE-A family members (MAGEA1, MAGEA2, MAGEA3, MAGEA4, MAGEA5, MAGEA6, MAGEA8, MAGEA9, MAGEA11, MAGEA12, MAGEB1, MAGEB3, MAGEB4, MAGEB5, MAGEB6, MAGEB10, MAGEB16, MAGEB17, MAGEB18). Positive control cell lines included CHO cells transfected with mCherry Vector (plus Myc/DDK tags) with human MAGE-B2 or CHO cells transfected with mCherry Vector (open reading frame (ORF); minus Myc/DDK tags) with human MAGEB2, and thirteen human cancer cell lines with known endogenous RNA expression level of MAGEB2 (U266B1, T98G, KMM-1, U20S, CFPAC-1, SCaBER, UACC-257, CFPAC-1, VMRC-LCD, NCI-H1703, UM-UC-3, NCI-H1395, NCIH82).
as §1, with “antibody.” for “antibody. Following this, slides were incubated with the Ventana Anti-Rabbit HQ (cat #760-4815) for 28 minutes at RT, Ventana Anti-HQ HRP (cat #760-4820) for 28 minutes at RT, and signals detected with Ventana DAB chromogen kit (cat #760-159) for 5 minutes at RT. Slides were counterstained with Ventana Hematoxylin II (cat #5266726001) for 8 minutes and Ventana Bluing reagent (cat #526676900) for 4 minutes. Slides were coverslipped and digitized using an Aperio AT2 scanner (Leica Biosystems Inc, Buffalo Grove, IL).”

human MAGEB4 = molecular target: T3, human MAGEB4 (human, UniProt O15481 1-346); assay: IHC, FFPE CHO cells transfected with human MAGEB4
T3 construct: whole, on cells
T3 sequence (looked up): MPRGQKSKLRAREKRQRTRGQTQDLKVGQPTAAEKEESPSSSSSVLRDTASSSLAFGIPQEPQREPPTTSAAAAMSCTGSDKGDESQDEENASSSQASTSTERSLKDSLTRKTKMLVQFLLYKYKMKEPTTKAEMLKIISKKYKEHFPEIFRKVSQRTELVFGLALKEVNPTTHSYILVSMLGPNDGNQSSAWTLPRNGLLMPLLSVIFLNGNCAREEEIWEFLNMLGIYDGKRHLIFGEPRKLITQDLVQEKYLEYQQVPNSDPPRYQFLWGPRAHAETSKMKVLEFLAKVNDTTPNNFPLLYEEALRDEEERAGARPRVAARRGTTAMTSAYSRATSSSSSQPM
Excerpt: as §2
as §1, with “antibody.” for “antibody. Following this, slides were incubated with the Ventana Anti-Rabbit HQ (cat #760-4815) for 28 minutes at RT, Ventana Anti-HQ HRP (cat #760-4820) for 28 minutes at RT, and signals detected with Ventana DAB chromogen kit (cat #760-159) for 5 minutes at RT. Slides were counterstained with Ventana Hematoxylin II (cat #5266726001) for 8 minutes and Ventana Bluing reagent (cat #526676900) for 4 minutes. Slides were coverslipped and digitized using an Aperio AT2 scanner (Leica Biosystems Inc, Buffalo Grove, IL).”

Measured: binding result

T1 sequence (P43357 whole entry): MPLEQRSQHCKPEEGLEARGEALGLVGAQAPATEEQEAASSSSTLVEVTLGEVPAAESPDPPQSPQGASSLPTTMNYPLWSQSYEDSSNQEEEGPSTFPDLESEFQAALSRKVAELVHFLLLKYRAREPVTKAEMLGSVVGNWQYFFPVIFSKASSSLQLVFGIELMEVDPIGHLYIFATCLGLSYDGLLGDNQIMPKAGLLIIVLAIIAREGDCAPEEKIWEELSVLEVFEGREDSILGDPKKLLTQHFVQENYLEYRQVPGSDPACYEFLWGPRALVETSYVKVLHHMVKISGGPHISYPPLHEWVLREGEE

B1: 1C3 (antibody, V domains shown)
VH: QSLEESGGGLVQPEGSLTLTCTAFGVTLTNYYICWVRQAPGKGLEWVGCIDNANGRTYYASWAKGRFTISKTSSTTGTLQMTSLTAADTATYFCARSLATPLWGPGTLVTVSS
VL: DIVMTQTPSSVEAAVGGTVTIKCQASQNISSYLAWYQQKPGQPPKLLIYRASTLASGVPSRFKGSGSGTQFTLTISDLECADAATYYCQSYDDSRSSNFFYAFGGGTEVVVKG
notes: also called MAGE-B2 (IC3); anti-MAGEB2 antibody 1C3
no binding (tested: 0.1 µg/ml): all assays above

B2: 4G17 (antibody, IgG1, V domains shown)
VH: QSLEESGGGLVQPEGSLTLTCTASGVTLSNYYICWVRQAPGKGLEWIGCIDNVNGRTYYASWAKGRFTISKTSSTTGTLQMTSLTAADTATYFCARSLATPLWGPGTLVTVSS
VL: DIVMTQTPASVEAAVGGTVTIKCQASQNIDSYLAWYQQKPGQPPKLLIYRASTLASGVPSRFKGSGSGTEFTLTISDLECADAATYYCQSYDDSRSSSFFYGFGGGTEVVVK
notes: Rabbit monoclonal IgG1; Tested as supernatant and as small batch purified antibody; also called MAGE-B2 (4G17); anti-MAGEB2 antibody 4G17
no binding (tested: 0.1 µg/ml): all assays above

B3: 1J15 (antibody, IgG1, V domains shown)
VH: QSLEESGGGLVQPEGSLTLTCTAFGFTLNNYYICWVRQAPGKGLEWIACIDNANGRTYYASWAKGRFTISKTSSTTVTLQMTSLTAADTATYFCARSLSTPLWGPGTLVTVSS
VL: DIVMTQTPASVEAAVGGTVTIKCQASQSISSYLSWYQQKPGQPPKLLIYRASTLASGVPSRFRGSGSGTQFTLTISDLECADAATYYCQSYDDSSDNNFFYGFGGGTEVVVR
notes: Rabbit monoclonal IgG1; Tested as supernatant and as small batch purified antibody; also called MAGE-B2 (IJ15); anti-MAGEB2 antibody 1J15
no binding (tested: 0.1 µg/ml): all assays above

B4: 1I14 (antibody, V domains shown)
VH: QSVEESGGRLVTPGTPLTLTCTISGFSLSSYAMSWVRQAPGKGLEWIGSIGGGGSAVYASWAKGRFTISKTSTTVDLRITSPTTEDTAMYFCGRGFYSIDLWGPGTLVTVSS
VL: DVVMTQTPASVEATVGGTVTIKCQSSQSVYDNNALAWYQQNAGQRPRLLIYGASTLASGVPSRFSASGSGTEFTLTISDLECADAATYYCQCTYYVSSYQNDFGGGTEVVVKG
notes: also called MAGE-B2 (1i14)
no binding (tested: 0.1 µg/ml): all assays above
